Test [1] concerns the target T1, glucagon (1-29) (Homo sapiens).
T1 construct: Glucagon (1-29), Anaspec 22456, as analyte in Biacore; the listing names Homo sapiens; also called GCG; glucagon peptide
In words: affinity for glucagon against commercial antibody 2D3-2B11 (Sigma-Aldrich WH0002641M1); method of the reference value not stated.

The target in test [2] is T1, glucagon (1-29). In words: Biacore SPR, antibody captured by goat anti-mouse Fc, glucagon (1-29) as analyte, 25 C, 1:1 Langmuir model. The procedure:
(§1) Briefly described, the anti-glucagon monoclonal antibody IBA009 or IBA032, may be dissolved in HBS-EP buffer (150 mM sodium chloride, 3 mM EDTA, 0.005% (w/v) surfactant P-20, and 10 mM N-2-hydroxyethylpiperazine-N′-2-ethanesulfonic acid (HEPES) at pH 7.4; #BR-1001-88). Goat anti-mouse Fc antibody is immobilized on flow cells 1 to 4 of a CMS sensor chip at a level of 4000 response units (RUs) using amine coupling chemistry to capture anti-glucagon antibodies.
(§2) Binding may be evaluated using multiple analytical cycles. Each cycle is performed at a flow rate of 50 μl/minute, and may consist of the following steps: injection of about 10 μl of the anti-glucagon monoclonal antibody IBA009 or IBA032 at 10 μg/ml aiming at a capture of 40-100 RUs, injection of 250 μl of glucagon (1-29) (Anaspec 22456)—(starting at 100 nM and using two-fold serial dilutions for each cycle) followed by 20 minutes for dissociation, and regeneration using about 30 μl of 10 mM glycine hydrochloride, pH 1.5. Association and dissociation rates for each cycle may be evaluated using a “1:1 (Langmuir) binding” model in the BIAevaluation software 4.1.
(§3) The anti-glucagon monoclonal antibodies IBA009 and IBA032 may be tested for binding kinetics to glucagon.
(In general: SPR reads the build-up and loss of mass on a sensor chip optically.)

Test [3] has as its target T1, glucagon (1-29). In words: Biacore SPR, antibody captured by goat anti-mouse Fc, glucagon (1-29) as analyte; KD = koff/kon. The procedure:
as §1, §2, §3

Test [4] has as its target T1, glucagon (1-29). In words: affinity for glucagon against commercial antibody K79bB10 (Sigma-Aldrich G2654); method of the reference value not stated.

T1 sequence (peptide, as listed by the source): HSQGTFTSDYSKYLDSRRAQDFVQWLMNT

B1: anti-glucagon monoclonal antibody IBA009 (antibody, mouse IgG1, kappa, V domains shown)
VH: QVQLLQPGAELVKPGASVKLSCKASGYNFNDYWLNWVKQRPGQGLEWIGNAYPGWGIINYNEKFKSKVTLTVDTSSSTVYMQLSSLTSDDSAVYYCARDYDNAYWGQGTTVTVSS
VL: NIVMTQSPKSMSMSVGERVTLTCKASENAGTYVAWYQQKPEQSPKLLIYNGSHRYDGVPDRFTGSGSATDFTLTISSVQAEDLADYYCGQSYSYPWTFGGGTKLEMKR
notes: Captured through goat anti-mouse Fc in Biacore; biotin-labelled as capture antibody in the sandwich ELISA; also called capture antibody IBA009; anti-mid region antibody IBA009
The term koff denotes the first-order rate constant of dissociation. Higher therefore signals fast dissociation. The term kon denotes a measure of how fast the partners come together. As usually defined, the Kd is the free concentration of one partner at which half of the binding sites on the other are occupied at equilibrium, for simple one-to-one binding. Low values mean a tighter complex, high ones a looser complex. Regarding B1, the “fold stronger affinity than reference antibody 2D3-2B11” value in test [1] was roughly 130 fold. Besides, in test [2], the koff was 1.1e-05 s⁻¹ and the kon is 1.5e+07 M⁻¹ s⁻¹. Also, binding in test [3] was characterised by a dissociation constant (Kd) of 0.73 pM.

B2: anti-glucagon monoclonal antibody IBA032 (antibody, mouse IgG1, kappa, V domains shown)
VH: QVQLQQSGAELVKPGASVKMSCKASGYNFTDYWIHWVKERPGQGLEWIGYFSTHSDYAIINQKFRDKATLTADKSSRLAYMQLSSLTSEDSAIYYCARGGLGLSYWGQGTTVTVSS
VL: DIVMTQAAPSVLVTPGESVSISCRSPKSLVGPMGRTYLYWFLQRPGQSPQLLIYRRNNLAPGVPDRFSGSGSGTAFTLRISRVEAEDVGIYYCMQHLEFPLTFGAGTKLEIKR
notes: Captured through goat anti-mouse Fc in Biacore; ruthenium-labelled as detection antibody in the sandwich ELISA; also called detection/conjugate antibody IBA032; anti-glucagon C-terminal antibody IBA032
With B2, the “fold stronger affinity than reference antibody K79bB10” value in test [4] is roughly 800 fold. Besides, in test [2], the koff was determined as 0.00024 s⁻¹ and the kon was found to be 2.7e+07 M⁻¹ s⁻¹. The molecule further registered a Kd in test [3] of 8.7 pM.

The values above are taken from patent publication US20140335096A1 (Eli Lilly, published 2014).
